# Test results reported in article PMC5655499, “Peptide array-based screening reveals a large number of proteins interacting with the ankyrin-repeat domain of the zDHHC17 S-acyltransferase” (The Journal of Biological Chemistry, 2017).
# T1: His6-tagged AR domain (residues 51–288) of zDHHC17 (human, UniProt Q8IUH5 51-288)
# T1 construct: ankyrin-repeat (AR) domain of human zDHHC17 (HIP14), residues 51-288; pET303CT-His plasmid; also called ARzD17-His; ARzD17; source: E. coli BL21(DE3)pLysS, purified; not shown: His6 (after a Leu-Glu linker), C-terminal, kept
# T1 sequence (looked up): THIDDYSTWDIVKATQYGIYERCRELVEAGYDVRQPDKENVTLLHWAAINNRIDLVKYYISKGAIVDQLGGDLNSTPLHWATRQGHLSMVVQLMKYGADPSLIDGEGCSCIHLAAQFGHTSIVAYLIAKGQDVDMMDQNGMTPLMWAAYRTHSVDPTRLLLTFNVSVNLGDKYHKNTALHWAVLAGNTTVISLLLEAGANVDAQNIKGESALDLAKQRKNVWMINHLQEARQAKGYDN
# Molecular target: T1, His6-tagged AR domain (residues 51–288) …
# Test: peptide or protein array; far-Western on an array of 109 SPOT-synthesised 12-mer peptides on cellulose membrane; ARzD17-His (51–288) 500 nM in PBS-T overnight at 4 °C; detected with His6 tag antibody; signals normalised to the highest (1000), values <10 non-binders
# Conditions: both partners purified
row,Binder,binding result
1,"HQYPLRQPQFRL (peptide, UniProt Q08499 39-50, looked up, 12-mer of human PDE4D with Pro-46 at position 7 and YP at positions 2-3; source: synthetic peptide, SPOT synthesis on cellulose membrane) [PDE4D (Pro-46) zDABM 12-mer peptide]",binds
2,"PRSKIAQPVRSF (peptide, UniProt Q8ND83 534-545, looked up, also called SLAI1; SLAIN motif-containing protein 1; source: synthetic peptide, SPOT synthesis on cellulose membrane) [SLAIN1 (Pro-541) zDABM 12-mer peptide]",binds
